Results published in article PMC9263355, “Galectin-3 Decreases 4-1BBL Bioactivity by Crosslinking Soluble and Membrane Expressed 4-1BB” (Frontiers in Immunology, 2022).

Target: T1, recombinant human (rh)4-1BB Fc chimera protein (human, UniProt Q07011 24-186)
T1 construct: human 4-1BB (CD137/TNFRSF9), the part of it in the R&D Systems Fc chimera; Glycosylated; also called CD137; TNFRSF9; source: bought: R&D Systems
Assay: fluorescence polarisation; fluorescence anisotropy in solution, by inhibition: fixed galectin (0.2-2.5 µM) with 0.02 µM of its fluorescent probe, in the presence of 0.07-4.75 µM (rh)4-1BB Fc or (rh)IgG1 Fc; average Kd from the points with ≥ 15% inhibition
Details: both partners purified

T1 sequence (Q07011 24-186, change not shown): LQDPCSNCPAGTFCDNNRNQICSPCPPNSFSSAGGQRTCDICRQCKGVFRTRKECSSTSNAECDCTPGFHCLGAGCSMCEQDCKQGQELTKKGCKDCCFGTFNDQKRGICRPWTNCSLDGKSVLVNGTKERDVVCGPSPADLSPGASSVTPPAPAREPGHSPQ

B1: recombinant human galectin-2 (natural protein, UniProt P05162 1-132, looked up)
chain: MTGELEVKNMDMKPGSTLKITGSIADGTDGFVINLGQGTDKLNLHFNPRFSESTIVCNSLDGSNWGQEQREDHLCFSPGSEVKFTVTFESDKFKVKLPDGHELTFPNRLGHSHLSYLSVRGGFNMSSFKLKE
notes: human galectin-2; also called Gal-2
- Kd: 6.12 µM
